Results: paper PMC3618350 (G3: Genes|Genomes|Genetics, 2013)
Like-named read-outs stand apart in the source and are kept apart here.

Legend:
Rad30 [1] = target: T1, Rad30 (S. cerevisiae, UniProt Q04049 1-632); test: two-hybrid
T1 sequence (looked up): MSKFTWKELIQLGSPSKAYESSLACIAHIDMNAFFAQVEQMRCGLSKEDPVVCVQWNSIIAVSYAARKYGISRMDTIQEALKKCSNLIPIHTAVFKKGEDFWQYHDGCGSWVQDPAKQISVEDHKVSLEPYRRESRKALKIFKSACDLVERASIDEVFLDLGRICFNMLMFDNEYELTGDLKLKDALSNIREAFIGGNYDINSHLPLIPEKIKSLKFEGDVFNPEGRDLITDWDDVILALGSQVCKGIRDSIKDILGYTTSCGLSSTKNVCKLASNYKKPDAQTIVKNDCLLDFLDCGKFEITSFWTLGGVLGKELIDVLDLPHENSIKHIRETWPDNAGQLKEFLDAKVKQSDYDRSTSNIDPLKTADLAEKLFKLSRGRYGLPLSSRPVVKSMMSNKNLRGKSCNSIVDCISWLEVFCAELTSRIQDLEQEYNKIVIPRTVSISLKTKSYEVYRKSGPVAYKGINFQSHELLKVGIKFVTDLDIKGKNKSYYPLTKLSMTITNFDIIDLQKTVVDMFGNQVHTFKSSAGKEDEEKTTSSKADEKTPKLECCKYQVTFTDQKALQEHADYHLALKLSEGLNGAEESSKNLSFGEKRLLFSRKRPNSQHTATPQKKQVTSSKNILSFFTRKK

Rad30 [2] = target: T1, Rad30; test: two-hybrid; remark: listed apart in the source

B1: Rev1 (enzyme, S. cerevisiae, UniProt P12689 1-985, looked up)
chain: MGEHGGLVDLLDSDLEYSINRETPDKNNCLSQQSVNDSHLTAKTGGLNARSFLSTLSDDSLIEYVNQLSQTNKNNSNPTAGTLRFTTKNISCDELHADLGGGEDSPIARSVIEIQESDSNGDDVKKNTVYTREAYFHEKAHGQTLQDQILKDQYKDQISSQSSKIFKNCVIYINGYTKPGRLQLHEMIVLHGGKFLHYLSSKKTVTHIVASNLPLKKRIEFANYKVVSPDWIVDSVKEARLLPWQNYSLTSKLDEQQKKLDNCKTVNSIPLPSETSLHKGSKCVGSALLPVEQQSPVNLNNLEAKRIVACDDPDFLTSYFAHSRLHHLSAWKANLKDKFLNENIHKYTKITDKDTYIIFHIDFDCFFATVAYLCRSSSFSACDFKRDPIVVCHGTKNSDIASCNYVARSYGIKNGMWVSQAEKMLPNGIKLISLPYTFEQFQLKSEAFYSTLKRLNIFNLILPISIDEAVCVRIIPDNIHNTNTLNARLCEEIRQEIFQGTNGCTVSIGCSDSLVLARLALKMAKPNGYNITFKSNLSEEFWSSFKLDDLPGVGHSTLSRLESTFDSPHSLNDLRKRYTLDALKASVGSKLGMKIHLALQGQDDEESLKILYDPKEVLQRKSLSIDINWGIRFKNITQVDLFIERGCQYLLEKLNEINKTTSQITLKLMRRCKDAPIEPPKYMGMGRCDSFSRSSRLGIPTNEFGIIATEMKSLYRTLGCPPMELRGLALQFNKLVDVGPDNNQLKLRLPFKTIVTNRAFEALPEDVKNDINNEFEKRNYKRKESGLTSNSLSSKKKGFAISRLEVNDLPSTMEEQFMNELPTQIRAEVRHDLRIQKKIQQTKLGNLQEKIKRREESLQNEKNHFMGQNSIFQPIKFQNLTRFKKICQLVKQWVAETLGDGGPHEKDVKLFVKYLIKLCDSNRVHLVLHLSNLISRELNLCAFLNQDHSGFQTWERILLNDIIPLLNRNKHTYQTVRKLDMDFEV
Rad30 [1]
  fold change in reporter activity over the highest negative control: 3.07 fold
Rad30 [2]
  fold change in reporter activity over the highest negative control: 1.47 fold
